First the molecules themselves.
B1: FBF1 (parent)
chain: YQRPQDSEDMWGDEDFTFGAYQPT
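Further: lentivirally expressed fusions sorted by FACS into six bins by GFP to DsRed ratio, PSI derived from sequencing read proportions per bin multiplied by bin number.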

In this data set the parent is B1. Put plainly: protein stability index of a GFP-peptide fusion (GPS, HEK-293T) (PSI 1-6); higher = more stable. Conditions: c terminus: a fixed tail appended.
In the case of YQRPQDSEDMYGDEDFTFGAYQPT [W11Y], the protein stability index came to 3.74. On to YQRPQDSEDMWGDEDFTCGAYQPT [F18C], for which the protein stability index was determined as 3.19. As for YQRPQDSEDMWGDEDFTQGAYQPT [F18Q], the figure is 3.35; as for YQRPQDSEDMWGDEDFTNGAYQPT [F18N], 3.93. As for YQRPQDSEDMWGDEDFTHGAYQPT [F18H], the figure is 3.04; as for YQRPQDSEDMWGDEDFTMGAYQPT [F18M], 3.25; as for YQRPQDSEDMWGDEDFTYGAYQPT [F18Y], 3.02. YQRPQDSEDMWGDEDFTAGAYQPT [F18A]: the protein stability index came to 3.43. Regarding YQRPQDSEDMWGDEDFTRGAYQPT [F18R], the protein stability index turned out to be 3.61. For the variant YQRPQDSEDMWGDEDFTEGAYQPT [F18E], the protein stability index stood at 3.62. Turning to YQRPQDSEDMWGDEDFTLGAYQPT [F18L], the protein stability index was 2.65. As for YQRPQDSEDMWGDEDFTIGAYQPT [F18I], the figure is 3.06; as for YQRPQDSEDMWGDEDFTTGAYQPT [F18T], 3.77; as for YQRPQDSEDMWGDEDFTGGAYQPT [F18G], 3.6. As for YQRPQDSEDMWGDEDFTPGAYQPT [F18P], the figure is 3.62; as for YQRPQDSEDMWGDEDFTWGAYQPT [F18W], 2.53; as for YQRPQDSEDMWGDEDFTKGAYQPT [F18K], 3.6. With YQRPQDSEDMWGDEDFTDGAYQPT [F18D], the protein stability index came out at 3.9.

For YQRPQDSEDMWGDEDFTVGAYQPT [F18V], the protein stability index came out at 3.8. As for YQRPQDSEDMWGDEDFTSGAYQPT [F18S], the figure is 3.98. As for YQRPQDSEDMWFDEDFTFGAYQPT [G12F], the figure is 2.41. As to YQRPQDSEDMWQDEDFTFGAYQPT [G12Q], the protein stability index turned out to be 3.13. For the variant YQRPQDSEDMWRDEDFTFGAYQPT [G12R], the protein stability index is 2.96. As for YQRPQDSEDMWWDEDFTFGAYQPT [G12W], the figure is 2.71. Regarding YQRPQDSEDMWTDEDFTFGAYQPT [G12T], the protein stability index was 2.55. As for YQRPQDSEDMWDDEDFTFGAYQPT [G12D], the figure is 4.15; as for YQRPQDSEDMWNDEDFTFGAYQPT [G12N], 3.17; as for YQRPQDSEDMWCDEDFTFGAYQPT [G12C], 2.28. Take YQRPQDSEDMWPDEDFTFGAYQPT [G12P]: the protein stability index is 3.79. For YQRPQDSEDMWIDEDFTFGAYQPT [G12I], the protein stability index is 2.43. As for YQRPQDSEDMWLDEDFTFGAYQPT [G12L], the figure is 2.28; as for YQRPQDSEDMWVDEDFTFGAYQPT [G12V], 2.48. Take YQRPQDSEDMWYDEDFTFGAYQPT [G12Y]: the protein stability index was determined as 2.55. On to YQRPQDSEDMWEDEDFTFGAYQPT [G12E], for which the protein stability index was determined as 3.71.

For the variant YQRPQDSEDMWSDEDFTFGAYQPT [G12S], the protein stability index was determined as 3.13. Consider YQRPQDSEDMWMDEDFTFGAYQPT [G12M], for which the protein stability index turned out to be 3.12. On to YQRPQDSEDMWKDEDFTFGAYQPT [G12K], for which the protein stability index worked out at 2.37. With YQRPQDSEDMWADEDFTFGAYQPT [G12A], the protein stability index was found to be 2.92. As for YQRPQDSEDMWHDEDFTFGAYQPT [G12H], the figure is 2.85; as for YQRPQDSEDMWGDEDDTFGAYQPT [F16D], 3.48. As for YQRPQDSEDMWGDEDETFGAYQPT [F16E], the figure is 3.73. As for YQRPQDSEDMWGDEDQTFGAYQPT [F16Q], the figure is 3.4; as for YQRPQDSEDMWGDEDWTFGAYQPT [F16W], 2.73; as for YQRPQDSEDMWGDEDVTFGAYQPT [F16V], 2.88. Turning to YQRPQDSEDMWGDEDYTFGAYQPT [F16Y], the protein stability index came to 2.83. As for YQRPQDSEDMWGDEDITFGAYQPT [F16I], the figure is 3.14. Take YQRPQDSEDMWGDEDMTFGAYQPT [F16M]: the protein stability index was 3.17. With YQRPQDSEDMWGDEDKTFGAYQPT [F16K], the protein stability index worked out at 2.87. As for YQRPQDSEDMWGDEDGTFGAYQPT [F16G], the figure is 3.23; as for YQRPQDSEDMWGDEDATFGAYQPT [F16A], 2.9; as for YQRPQDSEDMWGDEDCTFGAYQPT [F16C], 2.85. As for YQRPQDSEDMWGDEDLTFGAYQPT [F16L], the figure is 2.71; as for YQRPQDSEDMWGDEDTTFGAYQPT [F16T], 2.8. Take YQRPQDSEDMWGDEDSTFGAYQPT [F16S]: the protein stability index is 3.29. In the case of YQRPQDSEDMWGDEDPTFGAYQPT [F16P], the protein stability index was 2.71. With YQRPQDSEDMWGDEDRTFGAYQPT [F16R], the protein stability index was 2.73. As to YQRPQDSEDMWGDEDNTFGAYQPT [F16N], the protein stability index amounted to 3.61. With YQRPQDSEDMWGDEDHTFGAYQPT [F16H], the protein stability index was determined as 3. As for YQRPQDSETMWGDEDFTFGAYQPT [D9T], the figure is 2.59; as for YQRPQDSEYMWGDEDFTFGAYQPT [D9Y], 1.87; as for YQRPQDSEWMWGDEDFTFGAYQPT [D9W], 2.01. Take YQRPQDSEVMWGDEDFTFGAYQPT [D9V]: the protein stability index came out at 1.66. As to YQRPQDSEDMWGDEDFTFEAYQPT [G19E], the protein stability index was found to be 3.76. As to YQRPQDSEDMWGDEDFTFCAYQPT [G19C], the protein stability index amounted to 2.53. For the variant YQRPQDSEDMWGDEDFTFHAYQPT [G19H], the protein stability index amounted to 2.67. Turning to YQRPQDSEDMWGDEDFTFMAYQPT [G19M], the protein stability index worked out at 2.88.

Consider YQRPQDSEDMWGDEDFTFIAYQPT [G19I], for which the protein stability index came out at 2.64. For YQRPQDSEDMWGDEDFTFDAYQPT [G19D], the protein stability index came to 3.49.

As to YQRPQDSEDMWGDEDFTFNAYQPT [G19N], the protein stability index was 3.1.

YQRPQDSEDMWGDEDFTFAAYQPT [G19A]: the protein stability index was found to be 2.59. As for YQRPQDSEDMWGDEDFTFKAYQPT [G19K], the protein stability index was 2.51.

With YQRPQDSEDMWGDEDFTFFAYQPT [G19F], the protein stability index was 2.56. As for YQRPQDSEDMWGDEDFTFLAYQPT [G19L], the figure is 2.33; as for YQRPQDSEDMWGDEDFTFQAYQPT [G19Q], 2.78. As for YQRPQDSEDMWGDEDFTFPAYQPT [G19P], the figure is 2.77; as for YQRPQDSEDMWGDENFTFGAYQPT [D15N], 2.13; as for YQRPQDSEDMWGDEPFTFGAYQPT [D15P], 2.45. On to YQRPQDSEDMWGDEMFTFGAYQPT [D15M], for which the protein stability index is 1.9. As for YQRPQDSEDMWGDELFTFGAYQPT [D15L], the figure is 2.04.

As for YQRPQDSEDMWGDEFFTFGAYQPT [D15F], the protein stability index is 1.52. As for YQRPQDSEDMWGDEIFTFGAYQPT [D15I], the figure is 2.11; as for YQRPQDSEDMWGDEYFTFGAYQPT [D15Y], 2.23. As for YQRPQDSEDMWGDEHFTFGAYQPT [D15H], the figure is 2.05; as for YQRPQDSEDMWGDEAFTFGAYQPT [D15A], 2.31; as for YQRPQDSEDMWGDEQFTFGAYQPT [D15Q], 2.41. For the variant YQRPQDSEDMWGDEVFTFGAYQPT [D15V], the protein stability index came to 1.86.

YQRPQDSEDMWGDEKFTFGAYQPT [D15K]: the protein stability index amounted to 1.73. As for YQRPQDSEDMWGDEGFTFGAYQPT [D15G], the figure is 2.13; as for YQRPQDSEDMWGDETFTFGAYQPT [D15T], 2.43; as for YQRPQDSEDMWGDEEFTFGAYQPT [D15E], 2.75. As for YQRPQDSEDMWGDEWFTFGAYQPT [D15W], the figure is 1.78; as for YQRPQDSEDMWGDECFTFGAYQPT [D15C], 1.77; as for YQRPQDSEDMWGDESFTFGAYQPT [D15S], 2.16. As for YQRPQDSEDMWGDERFTFGAYQPT [D15R], the figure is 2.15.
